Data as given in paper PMC7324553, “Activity-Based Protein Profiling Reveals That Cephalosporins Selectively Active on Non-replicating Mycobacterium tuberculosis Bind Multiple Protein Families and Spare Peptidoglycan Transpeptidases” (Frontiers in Microbiology, 2020).

Target: the molecule itself
Experiment: SEC; Superdex 75 column, 20 mM Tris-Cl (pH 7.5), 150 mM NaCl; profile compared with protein size standards (44 and 17 kDa)

B1: Rv1738 (uncharacterized protein Rv1738; potential hibernation factor) (natural protein)
chain: MCGDQSDHVLQHWTVDISIDEHEGLTRAKARLRWREKELVGVGLARLNPADRNVPEIGDELSVARALSDLGKRMLKVSTHDIEAVTHQPARLLY
B1 was tested, and the “stoichiometry N” value was 2.
